US20180237497A1 (CANCER RESEARCH TECHNOLOGY, published 2018)

What was measured:
[1] = molecular target: T1, human IGF2^1-67 (mature insulin-like growth factor 2) (human, UniProt P01344 25-91, biotinylated (site not stated) where immobilised on the chip (Tables 1-4)); assay: SPR kinetic, biotin-IGF2 on chip, pH 6.5
T1 construct: mature; also called mature IGF2; biotinylated IGF2
Protocol: Measurements were carried out at 25° C. in MES-EP buffer, 20 mM MES pH 6.5, 150 mM NaCl, 3 mM EDTA, and 0.005% (v/v) surfactant P20). Data for KD expressed as mean of each experiment, and means of kon and koff are shown.
(§1) Final kinetic analysis of mutants by SPR was conducted using a Biacore T200 biosensor at 25° C. in either HBS-EP (10 mM HEPES pH 7.4, 150 mM NaCl, 3 mM EDTA, and 0.005% (v/v) surfactant P20) or MES-EP (20 mM MES pH 6.5, 150 mM NaCl, 3 mM EDTA, and 0.005% (v/v) surfactant P20) at a flow-rate of 40 μL min⁻¹. […] For the analysis of the Fc-domain 11^AB5 interaction, approximately 50 RU of a biotinylated IGF2:biotinylated ubiquitin mixture (1:8 proportion) was immobilized on the CM5-streptavidin chip. This interaction was also analysed by immobilizing the Fc-domain 11^AB5 and Fc-domain 11^AB5-RHH (or Fc-domain 11^I1572A as control) by Human Antibody Capture (monoclonal mouse anti-human IgG antibody immobilised on a CM5 chip by amine coupling, GE Healthcare) with and without human IgG1 Fc fragment (Bethyl Laboratories, UK) in the control flow cell. […] T200 BiaEvaluation software (GE Healthcare) was used to fit the resulting curves according to a 1:1 binding model. Steady state affinities were determined using the kinetic data, taking the response average at 5 seconds before injection end and for 5 seconds average. Thermodynamic data was performed across the temperature range of 10° C. to 30° C., van't Hoff and Erying plots generated and ΔH, −TΔS and ΔG values determined as previously described.

[2] = molecular target: T1, human IGF2^1-67 (mature insulin-like …); assay: SPR kinetic, biotin-IGF2 on chip
Protocol: as §1

[3] = molecular target: T1, human IGF2^1-67 (mature insulin-like …); assay: SPR steady state, biotin-IGF2 on chip
Protocol: as §1

[4] = molecular target: T1, human IGF2^1-67 (mature insulin-like …); assay: SPR steady state, biotin-IGF2 on chip, pH 7.4
Description: (§2) Surface plasmon resonance (SPR) binding analysis of recombinant M6P/IGF2R domain 11 mutants interaction with IGF2. Kon indicates association (on) rate; koff, dissociation (off) rate; RU, response units. Binding to IGF2 assessed with BIAcore T200 using purified biotinylated IGF2 and IGF1 on a streptavidin biosensor chip. Recombinant proteins were expressed either in E. coli and/or P. pastoris. All the mutants in the FG and CD loops are on the domain 11^AB5 background for the AB loop unless otherwise stated. All experiments were carried out at 25° C. in HBS-EP buffer (pH 7.4), were repeated 2-5 times on two independent BIAcore chips. nd=not determined. Data for KD expressed as mean of each experiment, and means of kon and koff are shown.
as §1, with “average.” for “average. Thermodynamic data was performed across the temperature range of 10° C. to 30° C., van't Hoff and Erying plots generated and ΔH, −TΔS and ΔG values determined as previously described.”

[5] = molecular target: T1, human IGF2^1-67 (mature insulin-like …); assay: SPR kinetic, biotin-IGF2 on chip, pH 7.4
Description: as §2
as §1, with “average.” for “average. Thermodynamic data was performed across the temperature range of 10° C. to 30° C., van't Hoff and Erying plots generated and ΔH, −TΔS and ΔG values determined as previously described.”

[6] = molecular target: T1, human IGF2^1-67 (mature insulin-like …); assay: SPR (Biacore T200, 25 °C, HBS-EP pH 7.4); ΔΔG° = RT ln(KD mutant / KD domain 11^AB3); box AB+FG
Protocol: Boxes show the change in the binding free energy contribution, ΔΔGº, for the indicated mutants. The loop/s that contains the mutation/s is indicated in each box. The ΔΔGº values were calculated as ΔΔGº=ΔGº domain 11^mutant−ΔGº domain 11^AB3=RTln(KD domain 11^mutant/KD domain 11^AB3). Additive and non-additive contributions of single point mutations are shown when calculated with a box solid line and dashed line, respectively.
as §1, with “average.” for “average. Thermodynamic data was performed across the temperature range of 10° C. to 30° C., van't Hoff and Erying plots generated and ΔH, −TΔS and ΔG values determined as previously described.”

[7] = molecular target: T1, human IGF2^1-67 (mature insulin-like …); assay: SPR
Description: as §2
as §1, with “model.” for “model. Steady state affinities were determined using the kinetic data, taking the response average at 5 seconds before injection end and for 5 seconds average. Thermodynamic data was performed across the temperature range of 10° C. to 30° C., van't Hoff and Erying plots generated and ΔH, −TΔS and ΔG values determined as previously described.”

[8] = molecular target: T1, human IGF2^1-67 (mature insulin-like …); assay: SPR kinetic, biotin-IGF2 on chip, pH 7.4; remark: listed apart in the source
Protocol: as §1

[9] = molecular target: T1, human IGF2^1-67 (mature insulin-like …); assay: SPR steady state, biotin-IGF2 on chip, pH 7.4; remark: listed apart in the source
Protocol: as §1

[10] = molecular target: T1, human IGF2^1-67 (mature insulin-like …); assay: SPR kinetic, Fc fusion captured by anti-human IgG, pH 7.4
Protocol: (§3) SPR analysis of the interaction of recombinant IGF1 and IGF2 forms with Fc-domain 11 proteins immobilised by antibody capture (CM5 chip containing monoclonal mouse anti-human IgG antibody immobilised by amine coupling). Measurements were carried out at 25° C. in HBS-EP buffer (pH 7.4).
as §1

pro-IGF2^1-156 = molecular target: T2, pro-IGF2^1-156 (UniProt P01344 25-180); assay: as above
T2 construct: range 1-156
T2 sequence (P01344 25-180 limits assumed): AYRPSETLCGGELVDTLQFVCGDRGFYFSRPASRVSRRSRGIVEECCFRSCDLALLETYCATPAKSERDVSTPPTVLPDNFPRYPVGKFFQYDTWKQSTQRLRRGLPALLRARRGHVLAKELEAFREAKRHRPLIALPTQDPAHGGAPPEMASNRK
Protocol: as §3, §1

pro-IGF2^1-104 = pro-IGF2^1-104 (UniProt P01344 25-128); assay: as above
Sequence of pro-IGF2^1-104 (P01344 25-128 limits assumed): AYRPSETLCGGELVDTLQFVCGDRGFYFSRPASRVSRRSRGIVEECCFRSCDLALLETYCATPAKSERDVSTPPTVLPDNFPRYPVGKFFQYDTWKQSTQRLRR
Protocol: as §3, §1

T1 sequence (P01344 25-91): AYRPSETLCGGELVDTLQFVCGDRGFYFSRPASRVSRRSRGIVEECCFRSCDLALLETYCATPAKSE

| Kd [2] | koff [2] | kon [2] | Kd [3] | Kd [4] | Kd [5] | koff [5] | kon [5] | ΔΔG [6] | Binder | other results |
| --- | --- | --- | --- | --- | --- | --- | --- | --- | --- | --- |
|  |  |  |  | 4.54 nM | 2.73 nM | 0.0121 s⁻¹ | 4.66e+06 M⁻¹ s⁻¹ | -1.02 kcal/mol | domain 11^AB5 G1603K (receptor, See m5) MKSNEHDDCQVTNPSTGHLFDLSSLSGRAGFTAAYAKGWGVYMSICGENENCPPGVGACFGQTRISVGKANKRLRYVDQVLQLVYKDGSPCPSKSKLSYKSVISFVCRPEAGPTNRPMLISLDKQTCTLFFSWHTPLACEQATECSV | fold improvement of affinity [7]: ≤ 2 fold |
| 119 nM | 0.15 s⁻¹ | 1.07e+06 M⁻¹ s⁻¹ | 135 nM |  |  |  |  |  | domain 11^WT + 312G (HI-VKLM) (receptor, See m5; Protein quality poor) MKSNEHDDCQVTNPSTGHLFDLSSLSGRAGFTAAYSEKGLVYMSICGENENCPPGVGACFGQTRISVGKANKRLRYVDQVLQLVYKDGSPCPSKSGLSYKSVISFVCRPEAGPTNRPMLISLVKLMCTLFFSWHTPLACEQATECSV |  |
|  |  |  |  | 5.44 nM | 3.19 nM | 0.0112 s⁻¹ | 3.61e+06 M⁻¹ s⁻¹ | -0.93 kcal/mol | domain 11^AB5 S1602H (receptor, See m5) MKSNEHDDCQVTNPSTGHLFDLSSLSGRAGFTAAYAKGWGVYMSICGENENCPPGVGACFGQTRISVGKANKRLRYVDQVLQLVYKDGSPCPSKHGLSYKSVISFVCRPEAGPTNRPMLISLDKQTCTLFFSWHTPLACEQATECSV | fold improvement of affinity [7]: ≤ 2 fold |

The next lines start with the binder.

| Binder | Kd [2] | koff [2] | kon [2] | Kd [3] | Kd [4] | Kd [5] | koff [5] | kon [5] | ΔΔG [6] | other results |
| --- | --- | --- | --- | --- | --- | --- | --- | --- | --- | --- |
| IGF2R domain 11^WT (receptor, Soluble His6-tagged domain 11 from P. pastoris and/or E. coli; also called wild-type domain 11) MKSNEHDDCQVTNPSTGHLFDLSSLSGRAGFTAAYSEKGLVYMSICGENENCPPGVGACFGQTRISVGKANKRLRYVDQVLQLVYKDGSPCPSKSGLSYKSVISFVCRPEAGPTNRPMLISLDKQTCTLFFSWHTPLACEQATECSV | 46 nM | 0.23 s⁻¹ | 5e+06 M⁻¹ s⁻¹ | 64 nM | 64 nM | 46 nM | 0.23 s⁻¹ | 5e+06 M⁻¹ s⁻¹ |  | Kd [1]: 35.1 nM; koff [1]: 0.144 s⁻¹; kon [1]: 2.68e+06 M⁻¹ s⁻¹ |
| IGF2R domain 11^AB3 (receptor, His6-tagged soluble domain 11; also called domain 11^E1544K, K1545S, L1547V; 1542YSKSGV1547) MKSNEHDDCQVTNPSTGHLFDLSSLSGRAGFTAAYSKSGVVYMSICGENENCPPGVGACFGQTRISVGKANKRLRYVDQVLQLVYKDGSPCPSKSGLSYKSVISFVCRPEAGPTNRPMLISLDKQTCTLFFSWHTPLACEQATECSV | 15.3 nM | 0.044 s⁻¹ | 2.76e+06 M⁻¹ s⁻¹ | 15.5 nM | 15.5 nM | 15.3 nM | 0.044 s⁻¹ | 2.76e+06 M⁻¹ s⁻¹ |  | Kd [1]: 11.8 nM; koff [1]: 0.0381 s⁻¹; kon [1]: 3.43e+06 M⁻¹ s⁻¹; Kd [8]: 15.3 nM; koff [8]: 0.044 s⁻¹; kon [8]: 2.76e+06 M⁻¹ s⁻¹; Kd [9]: 15.5 nM |
| domain 11^AB5 P1597H (receptor, See m5) MKSNEHDDCQVTNPSTGHLFDLSSLSGRAGFTAAYAKGWGVYMSICGENENCPPGVGACFGQTRISVGKANKRLRYVDQVLQLVYKDGSHCPSKSGLSYKSVISFVCRPEAGPTNRPMLISLDKQTCTLFFSWHTPLACEQATECSV |  |  |  |  |  |  |  |  | -1.23 kcal/mol | Kd [8]: 1.9 nM; koff [8]: 0.007 s⁻¹; kon [8]: 3.68e+06 M⁻¹ s⁻¹; Kd [9]: 2.79 nM |
| Fc-domain 11^AB5-RHH (IGF2-TRAP) (Fc fusion, not shown: a dimerising Fc or GST, RHH is not defined in words; read as Q1569R P1597H S1602H on AB5; IgG2 Fc is stated for the CHO product; also called IgG2 Fc-domain 11^AB5-RHH; Fc-domain 11^RHH) NEHDDCQVTNPSTGHLFDLSSLSGRAGFTAAYAKGWGVYMSICGENENCPPGVGACFGRTRISVGKANKRLRYVDQVLQLVYKDGSHCPSKHGLSYKSVISFVCRPEAGPTNRPMLISLDKQTCTLFFSWHTPLACEQAT |  |  |  |  |  |  |  |  |  | Kd [10]: 0.54 nM; koff [10]: 0.0014 s⁻¹; kon [10]: 2.6e+06 M⁻¹ s⁻¹; Kd (pro-IGF2^1-156): 1.13 nM; koff (pro-IGF2^1-156): 0.0003 s⁻¹; kon (pro-IGF2^1-156): 230000 M⁻¹ s⁻¹; Kd (pro-IGF2^1-104): 0.39 nM; koff (pro-IGF2^1-104): 0.0005 s⁻¹; kon (pro-IGF2^1-104): 1.29e+06 M⁻¹ s⁻¹ |
| Fc-domain 11^I1572A fusion protein (Fc fusion, not shown: human IgG Fc) NEHDDCQVTNPSTGHLFDLSSLSGRAGFTAAYSEKGLVYMSICGENENCPPGVGACFGQTRASVGKANKRLRYVDQVLQLVYKDGSPCPSKSGLSYKSVISFVCRPEAGPTNRPMLISLDKQTCTLFFSWHTPLACEQAT |  |  |  |  |  |  |  |  |  | Kd (pro-IGF2^1-156): 2.71 nM; koff (pro-IGF2^1-156): 0.0008 s⁻¹; kon (pro-IGF2^1-156): 290000 M⁻¹ s⁻¹; Kd (pro-IGF2^1-104): 4.41 nM; koff (pro-IGF2^1-104): 0.002 s⁻¹; kon (pro-IGF2^1-104): 520000 M⁻¹ s⁻¹ |
